Reference: US20250073347A1 (FORTVITA BIOLOGICS SINGAPORE PTE, published 2025)

Molecular target: T1, human Claudin18.2 on cells (human, UniProt P56856-2 1-261)
T1 construct: whole, on cells; also called CLDN18.2; hCLDN18.2
Experiment: flow cytometry on DANG-hCLDN18.2 cells, relative MFI (fold)
Procedure: The cells were centrifuged at 500 g for 5 min, and the cell medium was removed. […] The suspension was left to stand on ice for 30 min. The suspension was centrifuged at 500 g for 5 min, the supernatant was removed, and the cells were washed once with PBS. The goat anti-human Fc PE-labeled secondary antibody (SouthemBiotech, J2815-5H87B) was added at 100 µL/well. The resulting mixture was incubated on ice in the dark for 30 min. The mixture was centrifuged at 500 g for 5 min, the supernatant was removed, and the cells were washed once with PBS. The cells were resuspended in 50 μL of 1×PBS, and the suspension was loaded for FACS assay.

B1: IEX019-02 (HB37A6-SYNtecan E conjugate) (antibody, human IgG1, kappa, V domains shown)
VH: EVQLLDSGGGLVQPGGSLRLSCAASGFTFSSYVMSWVRQAPGKGLNWVSTISHSGGSTYYADSVKGRFTISRDNSKNTLYLQMNSLRAEDTAVYYCAIDAPYYDILTGYRYWGQGTLVTVSS
VL: not shown
modifications: GlcNAc(Fuc)-6-N3-GalNAc at Asn297 conjugated to linker-payload compound 1 (cleavable linker, 2 exatecan); average DAR 3.52
notes: also called SYN-HB37A6-Ex
- binding result: binds
